In paper PMC2289762 (The Journal of Cell Biology, 1992):

Molecular target: the molecule itself
Assay: cross-linking

B1: centromere protein B (CENP-B), full-size, from HeLa nuclei (natural protein)
chain: MGPKRRQLTFREKSRIIQEVEENPDLRKGEIARRFNIPPSTLSTILKNKRAILASERKYGVASTCRKTNKLSPYDKLEGLLIAWFQQIRAAGLPVKGIILKEKALRIAEELGMDDFTASNGWLDRFRRRHGVVSCSGVARARARNAAPRTPAAPASPAAVPSEGSGGSTTGWRAREEQPPSVAEGYASQDVFSATETSLWYDFLPDQAAGLCGGDGRPRQATQRLSVLLCANADGSEKLPPLVAGKSAKPRAGQAGLPCDYTANSKGGVTTQALAKYLKALDTRMAAESRRVLLLAGRLAAQSLDTSGLRHVQLAFFPPGTVHPLERGVVQQVKGHYRQAMLLKAMAALEGQDPSGLQLGLTEALHFVAAAWQAVEPSDIAACFREAGFGGGPNATITTSLKSEGEEEEEEEEEEEEEEGEGEEEEEEGEEEEEEGGEGEELGEEEEVEEEGDVDSDEEEEEDEESSSEGLEAEDWAQGVVEAGGSFGAYGAQEEAQCPTLHFLEGGEDSDSDSEEEDDEEEDDEDEDDDDDEEDGDEVPVPSFGEAMAYFAMVKRYLTSFPIDDRVQSHILHLEHDLVHVTRKNHARQAGVRGLGHQS
  stoichiometry N: 2
